According to publication PMC3002279, “Polyphosphate Kinase from M. tuberculosis: An Interconnect between the Genetic and Biochemical Role” (PLoS ONE, 2010):

Molecular target: the molecule itself
Assay: SEC; […] (50 mM Tris pH 7.5, 150 mM NaCl, 4 mM MgCl2, 10% glycerol) […]

B1: Polyphosphate Kinase (PPK) from M. tuberculosis, recombinant, untagged (enzyme)
chain: MMSNDRKVTEIENSPVTEVRPEEHAWYPDDSALAAPPAATPAAISDQLPSDRYLNRELSWLDFNARVLALAADKSMPLLERAKFLAIFASNLDEFYMVRVAGLKRRDEMGLSVRSADGLTPREQLGRIGEQTQQLASRHARVFLDSVLPALGEEGIYIVTWADLDQAERDRLSTYFNEQVFPVLTPLAVDPAHPFPFVSGLSLNLAVTVRQPEDGTQHFARVKVPDNVDRFVELAAREASEEAAGTEGRTALRFLPMEELIAAFLPVLFPGMEIVEHHAFRITRNADFEVEEDRDEDLLQALERELARRRFGSPVRLEIADDMTESMLELLLRELDVHPGDVIEVPGLLDLSSLWQIYAVDRPTLKDRTFVPATHPAFAERETPKSIFATLREGDVLVHHPYDSFSTSVQRFIEQAAADPNVLAIKQTLYRTSGDSPIVRALIDAAEAGKQVVALVEIKARFDEQANIAWARALEQAGVHVAYGLVGLKTHCKTALVVRREGPTIRRYCHVGTGNYNSKTARLYEDVGLLTAAPDIGADLTDLFNSLTGYSRKLSYRNLLVAPHGIRAGIIDRVEREVAAHRAEGAHNGKGRIRLKMNALVDEQVIDALYRASRAGVRIEVVVRGICALRPGAQGISENIIVRSILGRFLEHSRILHFRAIDEFWIGSADMMHRNLDRRVEVMAQVKNPRLTAQLDELFESALDPCTRCWELGPDGQWTASPQEGHSVRDHQESLMERHRSP
notes: also called M. tu PPK; M.tu PPK
**Q.** Which “stoichiometry N” value does the source give for B1 here?
**A.** Its value is 4.
